Substrate: OC[C@H]1O[C@@H](n2cnc3c(O)ncnc32)[C@H](O)[C@@H]1O
Assay: HPLC of hypoxanthine formed, Michaelis-Menten fit
Type: biochemical, Agaricus bisporus
Conditions: phosphorolysis, potassium phosphate co-substrate (50 mM in the standard assay), pH 7.0, 60 °C, 0–16 mM inosine, b52 prints the unit as µmol

B1: AbPNP (Agaricus bisporus var. burnettii JB137-S8) (protein)
chain: MKTNILSTVEYIRSQLPPELQQPRVGIVCGSGLSGLAGIIQNIHTIPYANIPGFGTSTVPGHRSELAFGLLGKNGVPVVAMLGRFHFYEGHPLSTVVYPIRVMARLGITEILITNAAGSLNPDIPTGTIVVVHDHIAFPGMAGTNPLMGPQTSPEHPRFLALSDAYSPSLRRLLFLAAHQLSLSKSALAEGTYAWVSGPNYETPAEGILLRSIGVDVVGMSTVPEVLVAREEGLKVMVLSLVTNLVVIPPSYKSIREEVEAELAGQSFVTPEEQVVSHDEVLAVGKEKAEVIKSLVQRVVELLS
notes: N-terminal 6xHis tag; codon-optimized gene in pPIC9K, Pichia pastoris GS115, Ni-NTA purified
- Km: 7.10 µM
- kcat: 14.38 s⁻¹
